The record followed here is paper PMC2975869.

The assay has as its target HA-tagged M593A-PTH1R (UniProt Q03431). Briefly: radioligand binding.

In the case of [125I]-PTH(1-34)NH2 (peptide), the Total Binding (TB), cells co-transfected with EBP50 was determined as 1290 and the Total Binding (TB), cells co-transfected with pcDNA3 was found to be 1180.
